Data: the supplement of paper PMC9876800

Test system: peptide library, one residue held at a place counted from the S/T acceptor
Test: relative phosphorylation of the sub-library (ratio to the mean residue at this position); human; higher = residue favoured
Procedure, shortened: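 Human or orthologue kinase constructs, purified and recombinant, were incubated under kinase-specific conditions in 384-well plates with biotinylated degenerate peptide sub-libraries. Each sub-library fixed one residue at one position around a central Ser/Thr. Incubations lasted 90 min with peptides at 50 μM and 50 μM ATP spiked with γ-32P-ATP, after which spots on streptavidin membranes were phosphorimaged and quantified by densitometry. Relative sub-library phosphorylation is a ratio to the mean residue at that position.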

Sequence of IKBKE, construct: Full length (Q14164 whole entry, looked up): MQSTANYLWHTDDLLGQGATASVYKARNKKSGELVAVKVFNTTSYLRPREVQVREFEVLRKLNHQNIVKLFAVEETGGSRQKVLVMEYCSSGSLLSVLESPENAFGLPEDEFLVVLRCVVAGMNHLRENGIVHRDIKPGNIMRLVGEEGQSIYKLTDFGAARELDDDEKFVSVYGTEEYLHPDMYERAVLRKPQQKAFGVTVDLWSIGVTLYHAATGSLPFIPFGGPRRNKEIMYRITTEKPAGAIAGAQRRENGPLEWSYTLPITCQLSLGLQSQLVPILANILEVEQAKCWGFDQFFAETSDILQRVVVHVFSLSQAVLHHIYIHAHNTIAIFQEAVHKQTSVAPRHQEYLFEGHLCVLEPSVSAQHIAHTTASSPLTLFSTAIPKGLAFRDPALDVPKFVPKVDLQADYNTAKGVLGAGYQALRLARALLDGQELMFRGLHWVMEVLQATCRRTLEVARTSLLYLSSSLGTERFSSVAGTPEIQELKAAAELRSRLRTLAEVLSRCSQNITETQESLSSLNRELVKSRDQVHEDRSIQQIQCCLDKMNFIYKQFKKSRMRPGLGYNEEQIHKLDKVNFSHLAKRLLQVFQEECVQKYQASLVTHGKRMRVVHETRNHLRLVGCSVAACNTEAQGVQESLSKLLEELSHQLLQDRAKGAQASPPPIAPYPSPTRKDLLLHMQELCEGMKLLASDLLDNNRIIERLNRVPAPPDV
Sequence of ACVR1B, construct: aa150-end (P36896 150-505, looked up): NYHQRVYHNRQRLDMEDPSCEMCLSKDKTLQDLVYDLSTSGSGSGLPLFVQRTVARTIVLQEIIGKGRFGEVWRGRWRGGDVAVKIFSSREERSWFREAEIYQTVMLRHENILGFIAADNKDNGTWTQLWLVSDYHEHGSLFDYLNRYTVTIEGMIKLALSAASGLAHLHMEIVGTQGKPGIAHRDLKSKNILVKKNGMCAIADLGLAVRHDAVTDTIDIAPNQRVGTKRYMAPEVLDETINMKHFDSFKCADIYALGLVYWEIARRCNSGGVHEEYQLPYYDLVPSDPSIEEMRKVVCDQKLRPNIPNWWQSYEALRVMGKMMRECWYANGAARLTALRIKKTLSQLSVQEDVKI
Sequence of PAK3, construct: Full length (O75914 whole entry, looked up): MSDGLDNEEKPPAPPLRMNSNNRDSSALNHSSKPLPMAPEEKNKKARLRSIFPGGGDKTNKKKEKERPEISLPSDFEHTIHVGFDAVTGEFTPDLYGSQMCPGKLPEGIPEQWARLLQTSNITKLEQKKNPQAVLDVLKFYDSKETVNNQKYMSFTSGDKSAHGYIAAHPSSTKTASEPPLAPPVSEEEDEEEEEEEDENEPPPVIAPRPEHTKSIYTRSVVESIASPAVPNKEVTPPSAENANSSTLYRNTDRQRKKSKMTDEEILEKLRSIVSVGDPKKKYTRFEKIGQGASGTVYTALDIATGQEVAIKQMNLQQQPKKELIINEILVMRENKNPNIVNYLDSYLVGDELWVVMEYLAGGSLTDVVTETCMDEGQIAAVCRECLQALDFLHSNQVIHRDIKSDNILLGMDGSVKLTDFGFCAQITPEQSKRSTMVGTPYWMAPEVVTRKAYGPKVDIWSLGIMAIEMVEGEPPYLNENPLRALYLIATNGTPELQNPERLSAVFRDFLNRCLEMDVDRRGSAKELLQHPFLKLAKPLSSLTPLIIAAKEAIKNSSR

PAK3, construct: Full length (from UniProt O75914)
relative phosphorylation
Conditions	at +1	at +2	at +3	at +4	at -1	at -2	at -3	at -4	at -5
A fixed	0.949	1.12	1.05	1.07	0.974	0.862	0.985	1.32	1.33
D fixed	0.291	0.36	0.768	0.986	0.485	0.178	0.437	0.64	0.604
E fixed	0.356	0.297	0.701	0.89	0.463	0.19	0.415	0.665	0.547
F fixed	1.14	1.37	1.37	0.847	0.752	0.471	0.59	0.732	0.876
G fixed	0.706	0.615	0.97	1.13	0.716	0.449	0.825	1.32	1.24
H fixed	1.09	1.57	1.2	1.14	1.31	1.61	1.32	1.29	1.1
I fixed	1.27	1.19	0.983	0.777	0.701	0.624	0.494	0.629	0.643
K fixed	1.07	0.645	0.764	1.03	1.61	1.3	2.22	1.28	1.81
L fixed	1.1	1.17	1.12	0.905	1.11	0.439	0.558	0.689	0.636
M fixed	1.54	1.04	1.02	0.933	1.12	0.48	0.693	0.873	0.681
N fixed	0.749	0.728	0.847	1.03	1.04	0.584	0.825	0.966	0.863
P fixed	0.21	0.655	0.976	1.45	0.611	0.817	0.823	1.14	1.09
Q fixed	1.09	0.729	0.886	1.17	1	0.715	0.878	1.05	0.93
R fixed	1.35	0.853	0.819	0.933	2.06	6.37	3.73	1.86	2.24
V fixed	1.12	1.11	0.955	0.908	0.914	0.748	0.512	0.756	0.757
W fixed	1.66	1.11	1.26	1.04	0.976	0.423	0.907	0.901	0.812
Y fixed	1.3	2.44	1.3	0.753	1.16	0.747	0.785	0.89	0.852
pThr fixed	0.479	0.471	0.632	0.99	0.367	0.411	0.546	0.754	0.574
pTyr fixed	0.635	2.43	0.9	0.76	0.605	0.323	0.743	0.654	0.619

ACVR1B, construct: aa150-end (from UniProt P36896)
relative phosphorylation
Conditions	at +1	at +2	at +3	at +4	at -1	at -2	at -3	at -4	at -5
A fixed	0.754	1.35	0.905	1.06	0.833	0.721	0.953	0.891	1.03
D fixed	1.17	1.11	1.11	1.24	1.05	1.58	1.35	1.55	1.12
E fixed	1.75	0.847	1.54	1.19	1.32	6.31	1.52	1.26	0.838
F fixed	1.09	1.01	1.19	0.997	0.896	0.497	1.03	1.02	1.13
G fixed	0.796	0.995	1.22	0.798	0.65	0.801	1.12	1.03	0.975
H fixed	0.749	0.809	0.948	0.968	1.16	0.606	1.02	0.997	1.24
I fixed	1.21	1.13	1.06	0.855	1	0.622	0.855	0.874	0.837
K fixed	0.542	0.649	0.605	0.896	0.747	0.483	0.798	0.987	1.11
L fixed	1.05	1.22	1.01	0.818	1.33	0.597	0.85	0.936	0.931
M fixed	1.33	0.865	1.04	0.967	1.45	0.497	0.998	1.06	0.968
N fixed	0.774	0.902	0.741	0.975	0.963	0.716	0.96	0.954	1.01
P fixed	0.691	1.17	1.14	1.42	0.762	0.549	0.947	0.94	0.939
Q fixed	0.944	0.952	0.909	1.01	1.03	0.72	0.956	0.768	0.809
R fixed	0.604	0.764	0.662	0.799	0.88	0.624	0.884	0.889	1.11
V fixed	1.19	1.18	1.09	0.929	1.12	0.603	0.867	0.843	0.816
W fixed	1.14	0.919	0.903	1.07	0.822	0.592	0.892	1.01	1.19
Y fixed	1.23	1.13	0.95	1.01	0.991	0.49	0.995	0.998	0.953
pThr fixed	2.93	1.06	0.942	1.36	0.888	1.36	1.34	0.896	1.1
pTyr fixed	3.57	1.77	1.28	1.51	1.27	0.679	1.02	1.26	1.03

IKBKE, construct: Full length (from UniProt Q14164)
relative phosphorylation
Conditions	at +1	at +2	at +3	at +4	at -1	at -2	at -3	at -4	at -5
A fixed	0.346	1.18	0.935	0.899	0.911	0.889	1.11	1.12	1.26
D fixed	0.306	1.07	0.898	0.987	1.04	1.25	1.24	1.35	1.34
E fixed	0.22	0.933	0.928	1.01	0.97	0.821	1.2	1.23	1.27
F fixed	1.6	0.967	1.22	1.12	1.03	1.65	0.755	0.829	0.992
G fixed	0.423	0.811	0.961	0.879	0.677	0.857	1.42	1.44	1.21
H fixed	0.688	1.14	1.24	1.15	1.11	0.99	1.09	1.08	1.14
I fixed	2.51	1.06	0.853	0.964	0.899	0.528	0.632	0.796	0.742
K fixed	0.219	0.714	0.471	0.672	0.849	0.563	0.819	0.88	0.927
L fixed	3.41	1.08	0.887	0.994	1.18	1.11	0.743	0.94	0.753
M fixed	3.08	1.18	1.11	1.03	1.28	1.65	1.07	0.928	0.808
N fixed	0.323	1.04	0.9	0.854	0.916	0.916	1.12	1.01	1.06
P fixed	0.178	0.893	1.14	1.1	1.12	1.13	1.3	1.06	0.959
Q fixed	0.292	1.07	0.835	0.839	0.89	0.796	1.05	0.942	0.827
R fixed	0.248	0.931	0.626	0.721	0.955	0.62	0.968	0.845	0.965
V fixed	1.04	1.22	0.936	0.926	0.986	0.544	0.672	0.665	0.861
W fixed	1	0.876	1.33	1.65	0.94	0.934	0.826	0.955	0.922
Y fixed	1.12	0.831	1.74	1.21	1.24	1.76	0.995	0.918	0.974
pThr fixed	0.471	1.03	0.717	1.04	0.722	0.757	1.13	1.18	1
pTyr fixed	0.448	0.8	1.07	0.934	1.18	1.29	1.67	1.13	1.03
